# Measured values: IntAct's records for PubMed 31031754
# B1: Phosphatidylinositol 4,5-bisphosphate 3-kinase catalytic subunit delta isoform (Homo sapiens), O00329 (parent)
# chain: MPPGVDCPMEFWTKEENQSVVVDFLLPTGVYLNFPVSRNANLSTIKQLLWHRAQYEPLFHMLSGPEAYVFTCINQTAEQQELEDEQRRLCDVQPFLPVLRLVAREGDRVKKLINSQISLLIGKGLHEFDSLCDPEVNDFRAKMCQFCEEAAARRQQLGWEAWLQYSFPLQLEPSAQTWGPGTLRLPNRALLVNVKFEGSEESFTFQVSTKDVPLALMACALRKKATVFRQPLVEQPEDYTLQVNGRHEYLYGSYPLCQFQYICSCLHSGLTPHLTMVHSSSILAMRDEQSNPAPQVQKPRAKPPPIPAKKPSSVSLWSLEQPFRIELIQGSKVNADERMKLVVQAGLFHGNEMLCKTVSSSEVSVCSEPVWKQRLEFDINICDLPRMARLCFALYAVIEKAKKARSTKKKSKKADCPIAWANLMLFDYKDQLKTGERCLYMWPSVPDEKGELLNPTGTVRSNPNTDSAAALLICLPEVAPHPVYYPALEKILELGRHSECVHVTEEEQLQLREILERRGSGELYEHEKDLVWKLRHEVQEHFPEALARLLLVTKWNKHEDVAQMLYLLCSWPELPVLSALELLDFSFPDCHVGSFAIKSLRKLTDDELFQYLLQLVQVLKYESYLDCELTKFLLDRALANRKIGHFLFWHLRSEMHVPSVALRFGLILEAYCRGSTHHMKVLMKQGEALSKLKALNDFVKLSSQKTPKPQTKELMHLCMRQEAYLEALSHLQSPLDPSTLLAEVCVEQCTFMDSKMKPLWIMYSNEEAGSGGSVGIIFKNGDDLRQDMLTLQMIQLMDVLWKQEGLDLRMTPYGCLPTGDRTGLIEVVLRSDTIANIQLNKSNMAATAAFNKDALLNWLKSKNPGEALDRAIEEFTLSCAGYCVATYVLGIGDRHSDNIMIRESGQLFHIDFGHFLGNFKTKFGINRERVPFILTYDFVHVIQQGKTNNSEKFERFRGYCERAYTILRRHGLLFLHLFALMRAAGLPELSCSKDIQYLKDSLALGKTEEEALKHFRVKFNEALRESWKTKVNWLAHNVSKDNRQ
# Variants of: B1
# Conditions: with p85a_human PIK3R1, P27986
# Chain of p85a_human PIK3R1, P27986 (P27986 whole entry): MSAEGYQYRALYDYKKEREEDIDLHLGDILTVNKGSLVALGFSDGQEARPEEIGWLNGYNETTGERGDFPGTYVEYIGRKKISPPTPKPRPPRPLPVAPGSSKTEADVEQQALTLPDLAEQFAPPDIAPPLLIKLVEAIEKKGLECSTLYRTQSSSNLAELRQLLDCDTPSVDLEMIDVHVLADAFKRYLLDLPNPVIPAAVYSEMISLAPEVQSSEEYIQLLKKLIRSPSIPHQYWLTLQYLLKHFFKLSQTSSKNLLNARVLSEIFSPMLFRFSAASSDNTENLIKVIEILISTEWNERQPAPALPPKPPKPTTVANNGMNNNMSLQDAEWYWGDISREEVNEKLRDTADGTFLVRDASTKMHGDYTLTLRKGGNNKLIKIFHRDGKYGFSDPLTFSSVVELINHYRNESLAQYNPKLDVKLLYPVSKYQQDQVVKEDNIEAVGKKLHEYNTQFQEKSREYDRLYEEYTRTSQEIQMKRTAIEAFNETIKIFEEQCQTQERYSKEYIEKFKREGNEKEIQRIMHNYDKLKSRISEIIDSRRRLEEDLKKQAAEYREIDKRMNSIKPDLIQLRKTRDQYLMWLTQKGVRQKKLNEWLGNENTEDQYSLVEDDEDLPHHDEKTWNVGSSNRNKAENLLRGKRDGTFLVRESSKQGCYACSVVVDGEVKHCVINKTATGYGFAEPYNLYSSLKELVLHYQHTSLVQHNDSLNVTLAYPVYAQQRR
row,Variant,effect of a mutation on the interaction
1,Y524S,with no effect
